Experiments:
[1] = target: GSU0105, triheme c-type cytochrome from Geobacter sulfurreducens, with C-terminal Factor Xa-cleavable His-tag (Geobacter sulfurreducens); test: SAXS
[2] = target: GSU0105, triheme c-type cytochrome from Geobacter sulfurreducens, with C-terminal Factor Xa-cleavable His-tag (Geobacter sulfurreducens); test: pull-down

Row | stoichiometry N [1] | Kd [2] [µM] | Substance
1 | 4 |  | GSU0105, triheme c-type cytochrome from Geobacter sulfurreducens, with C-terminal Factor Xa-cleavable His-tag (natural protein)
2 |  | < 10 | PpcD, triheme cytochrome c7 from Geobacter sulfurreducens (natural protein)

From publication doi:10.1101/2020.11.03.367284
